According to PMC6363164, “Structural basis of human ORP1-Rab7 interaction for the late-endosome and lysosome targeting” (PLoS ONE, 2019):

Experiments:
Conditions in all cases: both partners purified
[1] = target: T1, human Rab7 (residue 2-195) Q67L, GTP-loaded (human, UniProt P51149 2-195, Q67L); test: ITC; 20 °C; 20 mM Tris-HCl pH 7.5, 150 mM NaCl; 1 mM ORP1 ANK in the syringe, 0.1 mM Rab7 or Rab7-RILP in the cell; Rab7 Q67L with 0.5 mM GTP, Rab7 T22N with 0.5 mM GDP; independent binding model
T1 construct: Ras-related protein Rab-7a, human, UniProt P51149, residues 2-195, dominant active mutant Q67L; Loaded with 0.5 mM GTP for ITC; also called Rab7 Q67L; dominant active Rab7; source: E. coli BL21(DE3), purified (Ni-NTA, SEC)

[2] = target: T2, human Rab7 (residue 2-195) T22N, GDP-loaded (human, UniProt P51149 2-195, T22N); test: as above
T2 construct: Ras-related protein Rab-7a, human, UniProt P51149, residues 2-195, dominant negative mutant T22N; Loaded with 0.5 mM GDP for ITC; also called Rab7 T22N; dominant negative Rab7; source: E. coli BL21(DE3), purified (Ni-NTA, SEC)

[3] = target: T3, human Rab7 (residue 2-195) Q67L Δ73, GTP-bound (human, UniProt P51149 2-195, Q67L | Δ73); test: crystal structure; ORP1 ANK (5-152) with GTP- and Mg2+-bound Rab7 (2-195) Q67L Δ73; 2.1 Å; two heterodimers in the asymmetric unit
T3 construct: Ras-related protein Rab-7a, human, UniProt P51149, residues 2-195, Q67L and deletion of Leu73 in switch II; 0.5 mM MgCl2 and GTP were added before crystallisation; also called Rab7 Q67L Δ73; Rab7 (Q67L, Δ73); source: E. coli BL21(DE3), purified (Ni-NTA, SEC)
T3 sequence (P51149 other isoform, or with tags, fused parts or gaps Q67L | Δ73 | Q67L | Δ73 | Q67L Q67L): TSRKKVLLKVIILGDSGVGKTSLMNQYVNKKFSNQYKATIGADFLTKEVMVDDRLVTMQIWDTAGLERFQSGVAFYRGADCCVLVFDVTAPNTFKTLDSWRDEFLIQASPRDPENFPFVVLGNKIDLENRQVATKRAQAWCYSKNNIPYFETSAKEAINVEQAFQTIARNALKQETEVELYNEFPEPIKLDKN

T1 sequence (P51149 2-195 Q67L): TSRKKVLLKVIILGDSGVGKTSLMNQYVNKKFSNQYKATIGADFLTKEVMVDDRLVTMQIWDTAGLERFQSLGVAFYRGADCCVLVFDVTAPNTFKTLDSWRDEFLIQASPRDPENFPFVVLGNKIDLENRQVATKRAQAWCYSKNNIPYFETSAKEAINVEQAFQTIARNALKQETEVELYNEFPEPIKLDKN
T2 sequence (P51149 2-195 T22N): as the sequence (P51149 2-195 Q67L) above, with T21N, L66Q counted along it

Kd [1]: 9.3 µM
stoichiometry N [1]: 1
binding result [2]: binds
binding result [3]: binds
B1: human ORP1 ANK domain (residue 5-152) (domain or fragment, UniProt Q9BXW6-1 5-152, looked up)
chain: AEQQLLHHARNGNAEEVRQLLETMARNEVIADINCKGRSKSNLGWTPLHLACYFGHRQVVQDLLKAGAEVNVLNDMGDTPLHRAAFTGRKELVMLLLEYNADTTIVNGSGQTAKEVTHAEEIRSMLEAVERTQQRKLEELLLAAAREG
notes: The His tag was cut off with thrombin (site LVPR/GS); A longer ANK construct (5-233) was also cloned; also called small ORP1 ANK construct; source: E. coli BL21(DE3), purified (Ni-NTA, SEC); not shown: His6, N-terminal, cleaved
